What all share (settings): tags: 13 N-terminal amino acids of lambda cII; partially purified from E. coli N6405; chain copies: 2
In series [1] the target is T1, BPV-1 E2 C-terminal segment (cII-E2 fusion, pCOE2-1) (Bovine papillomavirus type 1, UniProt P03122 P03122:114-410).
T1 chain: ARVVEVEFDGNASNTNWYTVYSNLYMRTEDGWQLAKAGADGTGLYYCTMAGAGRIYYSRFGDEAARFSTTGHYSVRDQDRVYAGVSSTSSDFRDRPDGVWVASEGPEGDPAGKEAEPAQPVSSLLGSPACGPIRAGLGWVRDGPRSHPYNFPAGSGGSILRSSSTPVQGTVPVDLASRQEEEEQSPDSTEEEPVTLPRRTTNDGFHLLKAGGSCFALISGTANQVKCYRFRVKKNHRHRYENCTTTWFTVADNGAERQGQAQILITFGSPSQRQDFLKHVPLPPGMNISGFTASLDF
The series can be described thus: competition; relative to N1; no consensus site.

Series [2] has as its target T1, BPV-1 E2 C-terminal segment (cII-E2 …). Description: competition; about 1000 times more effective competitor than N2; DNA immunoprecipitation.
Series [3] shares this target. Description: competition; single strand did not block immunoprecipitation of dsDNA.

B1: 23 bp fragment without E2 site (dsDNA)
DNA 1: GCGCATAATCAGCTTAATTGGTG
DNA 2: CACCAATTAAGCTGATTATGCGC
In turn, B1 came in with a binding signal in series [1] of around 0.001 fold.

B2: 23 bp URR fragment with E2 site IIIb (dsDNA)
DNA 1: CGTCAAACCGTCTTCGGTGCTC
DNA 2: GAGCACCGAAGACGGTTTGACG
As to B2, in series [2], the binding signal was around 1000 fold.
As to GCGCATAATCAGCTTAATTGGTG (ssDNA) [single-stranded oligonucleotide without E2 site], the binding result in series [3] was “no binding”.
Consider CGTCAAACCGTCTTCGGTGCTC (ssDNA) [single-stranded oligonucleotide with site IIIb], for which the binding result in series [3] is reported as “no binding”.

Source of the values: US5674835, “Papillomaviral expression inhibitors” (New England Medical Center Hospitals, Inc.).
